Results: the supplement of paper PMC9233669
This sample holds only a part of the variants without activity.

Experiments:
[1] = tested on: biotinyl-Phe-oxazolone; experiment: self-aminoacylation, catalytic enhancement (BFO) (fold over background); higher = more active; k-Seq, kA / k0A0; sequences stand for … in GGGAAUGGAUCCACAUCUACGAAUUC…UUCACUGCAGACUUGACGAAGCUG
Outline: (§1)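 Catalytic enhancement equals the median kA over the uncatalyzed rate, the latter read from the low-activity peak of a bimodal Gaussian fit. Values of kA came from fitting each sequence's fraction reacted to a pseudo-first-order model, with 1000 bootstraps. Reacted RNA was captured with streptavidin and quantified by triplicate qPCR and Illumina sequencing after 90 minutes at room temperature with 2–1250 μM biotinyl-aminoacyl-oxazolone and 0.43 μM mutagenized RNA pools bearing a 21-nt variable region.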

[2] = tested on: biotinyl-Ile-oxazolone; experiment: self-aminoacylation, catalytic enhancement (BIO) (fold over background); higher = more active; k-Seq, kA / k0A0; sequences stand for … in GGGAAUGGAUCCACAUCUACGAAUUC…UUCACUGCAGACUUGACGAAGCUG
Outline: as §1

[3] = tested on: biotinyl-Met-oxazolone; experiment: self-aminoacylation, catalytic enhancement (BMO) (fold over background); higher = more active; k-Seq, kA / k0A0; sequences stand for … in GGGAAUGGAUCCACAUCUACGAAUUC…UUCACUGCAGACUUGACGAAGCUG
Outline: as §1

[4] = tested on: biotinyl-Val-oxazolone; experiment: self-aminoacylation, catalytic enhancement (BVO) (fold over background); higher = more active; k-Seq, kA / k0A0; sequences stand for … in GGGAAUGGAUCCACAUCUACGAAUUC…UUCACUGCAGACUUGACGAAGCUG
Outline: as §1

[5] = tested on: biotinyl-Leu-oxazolone; experiment: self-aminoacylation, catalytic enhancement (BLO) (fold over background); higher = more active; k-Seq, kA / k0A0; sequences stand for … in GGGAAUGGAUCCACAUCUACGAAUUC…UUCACUGCAGACUUGACGAAGCUG
Outline: as §1

[6] = tested on: biotinyl-Trp-oxazolone; experiment: self-aminoacylation, catalytic enhancement (BWO) (fold over background); higher = more active; k-Seq, kA / k0A0; sequences stand for … in GGGAAUGGAUCCACAUCUACGAAUUC…UUCACUGCAGACUUGACGAAGCUG
Outline: as §1

Sequence	self-aminoacylation [1]	self-aminoacylation [2]	self-aminoacylation [3]	self-aminoacylation [4]	self-aminoacylation [5]	self-aminoacylation [6]
CUACUUCAAACCACCGGUCUG [Fam1A.1 aminoacylation ribozyme variant]	0.963	1.03	1.09	0.954	0.795	1.25
CCACACUUCAAGCCCUCGGUC [Fam1B.1 aminoacylation ribozyme variant]	5.16	1.4	2.01	1.58	1.64	1.92
AAGUAUGCUAAUAGUCGCAUG [Fam3.1 aminoacylation ribozyme variant]	1.66	1.34	1.45	1.09	1.55	1.84
CUACUUCAAACAAUCGGACUA [Fam1A.1 aminoacylation ribozyme variant]	1.13	0.831	0.579	0.744	0.617	0.655
CCACACUUAAAGCAAUCGGCC [Fam1B.1 aminoacylation ribozyme variant]	7.34	1.72	1.71	1.97	2.15	1.7
AUUCACCUAGGUCAUCCAGUG [Fam2.2 aminoacylation ribozyme variant]	52	5.19	7.78	4.21	9.68	6.96
CCCCACUUCAAGCAAUCGGUC [Fam1B.1 aminoacylation ribozyme variant]	57.5	1.54	1.48	1.83	1.97	31.5
AGUCCCCUGGUCAUCGAGUGA [Fam2.1 aminoacylation ribozyme variant]	42.6	3.3	6.67	4.13	6.55	7.41
GUUACACUGGUCAUCGAGUGA [Fam2.1 aminoacylation ribozyme variant]	28.9	4.91	6.79	4.18	6.76	8.81
CUGCAUCAAACAAUCGGUCUG [Fam1A.1 aminoacylation ribozyme variant]	10.1	1.08	1.13	1.05	1.18	7.51
CUUCACCAAGGUCAUCGGGUG [Fam2.2 aminoacylation ribozyme variant]	59.9	4.21	8.17	5.4	9.25	7.64
AUUCUCCUAGGUCAACGGGUG [Fam2.2 aminoacylation ribozyme variant]	46.7	3.79	6.57	3.61	8.2	5.38
AUACACUUCAAGCAAUCGGUC [Fam1B.1 aminoacylation ribozyme variant]	9.74	1.05	0.804	0.96	0.979	5.86
AUUCCCCUAGGUCAUCGGGCG [Fam2.2 aminoacylation ribozyme variant]	81.8	9.9	15.7	11.3	13.5	9.17
AUUAUCCUGGUAAUCGAGUGA [Fam2.1 aminoacylation ribozyme variant]	96.5	5.94	13.3	5.97	14.5	16.5
AUUACCCUGGUCAUCGAGUAU [Fam2.1 aminoacylation ribozyme variant]	97.7	8	26.9	9.24	23.6	24.4
CCGCACUGCAAGCAAUCGGUC [Fam1B.1 aminoacylation ribozyme variant]	1	1.52	1.21	1.81	1.17	1.42
AAGUUUGCUAAGAGUAGCAAG [Fam3.1 aminoacylation ribozyme variant]	1.3	0.857	1.1	0.727	1.21	1.17
AUCACCCUGGUCCUCGAGUGA [Fam2.1 aminoacylation ribozyme variant]	51.6	4.01	6.62	4.54	8.29	7.28
GAGUAUGCUAAUAGUCGCAAG [Fam3.1 aminoacylation ribozyme variant]	6.5	1.91	1.49	1.61	1.45	4.13
AAGUUCGCUCAUAGUCGCAAG [Fam3.1 aminoacylation ribozyme variant]	7.56	2.23	2.01	1.77	1.96	2.26
